Measurements published in paper PMC8653791, “TBX2 controls a proproliferative gene expression program in melanoma”.

Target: T1, Tbx2 T-box DNA-binding domain, TBX2(94-281) (UniProt Q60707 94-281)
T1 sequence: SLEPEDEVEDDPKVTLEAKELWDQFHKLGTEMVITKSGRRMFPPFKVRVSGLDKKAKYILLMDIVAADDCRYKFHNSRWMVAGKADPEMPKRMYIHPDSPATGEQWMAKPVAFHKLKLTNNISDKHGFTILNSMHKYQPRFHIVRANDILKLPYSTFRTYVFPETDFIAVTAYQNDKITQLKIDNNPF
Assay: fluorescence anisotropy; 50 mM HEPES/NaOH pH 7.3, 200 mM NaCl, 25 C, 10 min, 3.33 nM dsDNA probe
Conditions: protein: recombinant, tags: N-terminal His tag removed by 3C protease (pETM14, NcoI/XhoI), blunt

B1: E-box probe (dsDNA)
DNA 1: GAGACCACGTGTTGAC
DNA 2: GTCAACACGTGGTCTC
Question: For B1, which Kd (label: fluorescein on S14 (printed at the 3' end), complement unlabeled) is on record?
Answer: The Kd was about 86 nM.

B2: T-element (T-box) probe (dsDNA)
DNA 1: AATTTCACACCTAGGTGTGAAATT
DNA 2: AATTTCACACCTAGGTGTGAAATT
Question: With B2 as the binder, how does the Kd (label: fluorescein (printed at the 3' end), self-complementary palindrome, 2 copies) read?
Answer: Its Kd is about 602 nM.
